B1: U6.mi405H: mi405 construct with altered flanking sequences (nucleic acid)
DNA: ACGCCGCCATCTCTAGGCCCGCGCCGGCCCCCTCGCACAGACTTGTGGGAGAAGCTCGGCTACTCCCCTGCCCCGGTTAATTTGCATATAATATTTCCTAGTAACTATAGAGGCTTAATGTGCGATAAAAGACAGATAATCTGTTCTTTTTAATACTAGCTACATTTTACATGATAGGCTTGGATTTCTATAAGAGATACAAATACTAAATTATTATTTTAAAAAACAGCACAAAAGGAAACTCACCCTAACTGTAAAGTAATTGTGTGTTTTGAGACTATAAATATCCCTTGGAGAAAAGCCTTGTTTGACCGTTTAAACTCGAGTGAGCGATCCAGGATTCAGATCTGGTTTCTGTAAAGCCACAGATGGGAAACCAGATCTGAATCCTGGACTGCCTACTAGAGCGCACGCCAGTTTTTT
B2: U6.mi405F: mi405 with one G at 5' end and 16 mer 3' flanking sequence with single CNNC motif (nucleic acid)
DNA: ACGCCGCCATCTCTAGGCCCGCGCCGGCCCCCTCGCACAGACTTGTGGGAGAAGCTCGGCTACTCCCCTGCCCCGGTTAATTTGCATATAATATTTCCTAGTAACTATAGAGGCTTAATGTGCGATAAAAGACAGATAATCTGTTCTTTTTAATACTAGCTACATTTTACATGATAGGCTTGGATTTCTATAAGAGATACAAATACTAAATTATTATTTTAAAAAACAGCACAAAAGGAAACTCACCCTAACTGTAAAGTAATTGTGTGTTTTGAGACTATAAATATCCCTTGGAGAAAAGCCTTGTTTGCTCGAGTGAGCGATCCAGGATTCAGATCTGGTTTCTGTAAAGCCACAGATGGGAAACCAGATCTGAATCCTGGACTGCCTACTAGTAATTCTTCGATTCTGCTTTTTT
B3: U6.mi405G: mi405 construct with altered flanking sequences (nucleic acid)
DNA: ACGCCGCCATCTCTAGGCCCGCGCCGGCCCCCTCGCACAGACTTGTGGGAGAAGCTCGGCTACTCCCCTGCCCCGGTTAATTTGCATATAATATTTCCTAGTAACTATAGAGGCTTAATGTGCGATAAAAGACAGATAATCTGTTCTTTTTAATACTAGCTACATTTTACATGATAGGCTTGGATTTCTATAAGAGATACAAATACTAAATTATTATTTTAAAAAACAGCACAAAAGGAAACTCACCCTAACTGTAAAGTAATTGTGTGTTTTGAGACTATAAATATCCCTTGGAGAAAAGCCTTGTTTGACCGTTTAAACTCGAGTGAGCGATCCAGGATTCAGATCTGGTTTCTGTAAAGCCACAGATGGGAAACCAGATCTGAATCCTGGACTGCCTACTAGAGAATTCTTCGATTCTGCTTTTTT
B4: H1.mir-675: commercially available H1 promoter mir-675 expression plasmid (SBI Biosciences) (nucleic acid)
DNA: GAACGCTGACGTCATCAACCCGCTCCAAGGAATCGCGGGCCCAGTGTCACTAGGCGGGAACACCCAGCGCGCGTGCGCCCTGGCAGGAAGATGGCTGTGAGGGACAGGGGAGTGGCGCCCTGCAATATTTGCATGTCGCTATGTGTTCTGGGAAATCACCATAAACGTGAAATGTCTTTGGATTTGGGAATCTTATAAGTTCTGTATGAGACCACCCCCCAGGGTCTGGTGCGGAGAGGGCCCACAGTGGACTTGGTGACGCTGTATGCCCTCACCGCTCAGCCCCTGGGGAATTCTTCGATTCTGCTTTTTT
B5: U6.mir-675: U6 promoter-driven mir-675 expression plasmid with 40 nt 5' and 47 nt 3' flanking sequences (nucleic acid)
DNA: GACGCCGCCATCTCTAGGCCCGCGCCGGCCCCCTCGCACAGACTTGTGGGAGAAGCTCGGCTACTCCCCTGCCCCGGTTAATTTGCATATAATATTTCCTAGTAACTATAGAGGCTTAATGTGCGATAAAAGACAGATAATCTGTTCTTTTTAATACTAGCTACATTTTACATGATAGGCTTGGATTTCTATAAGAGATACAAATACTAAATTATTATTTTAAAAAACAGCACAAAAGGAAACTCACCCTAACTGTAAAGTAATTGTGTGTTTTGAGACTATAAATATCCCTTGGAGAAAAGCCTTGTTTGCGTTTAGTGAACCGTCAGATGGTACCGTTTAAACTCGAGCCCAGGGTCTGGTGCGGAGAGGGCCCACAGTGGACTTGGTGACGCTGTATGCCCTCACCGCTCAGCCCCTGGGACTAGAGCGGCCGCCACAGCGGGGAGATCCAGACATGATAAGATACATTTTTT

Experiments:
DUX4 protein = test: Western blot of V5-tagged DUX4 protein in co-transfected HEK293 cells; format: cell-based, human; conditions: for reduction of DUX4 protein levels compared to U6.miGFP: DUX4:mi405 molar ratio 2 to 1; for reduction of DUX4 protein levels compared to U6.miGFP / reduction of DUX4 protein levels compared to U6.mi405F / reduction of DUX4 protein levels relative to U6.mi405 / reduction of DUX4 protein levels / Average inhibition efficiency (%) of DUX4 protein levels: HEK293; for reduction of DUX4 protein levels compared to U6.mi405F / reduction of DUX4 protein levels relative to U6.mi405: molar ratio 12 to 1, N=4; for Average inhibition efficiency (%) of DUX4 protein levels: CMV.DUX4-FL/CMV.eGFP, molar ratio 1 to 3, eGFP normalizer, relative to U6-milacZ, N = 3-8; for effect on DUX4 protein level (DUX4-FL WT): FIG. 18, HEK293 western blot
[1] = test system: DUX4-induced muscle toxicity; test: mi405 constructs (scAAV6) co-injected with AAV.CMV.DUX4-FL in mouse TA, H&E; format: in vivo, mouse (C57BL/6); conditions: scAAV6, 5e09 DRP co-injected with 5e09 DRP AAV.CMV.DUX4-FL, 8 weeks
Experimental: AAV Vector Delivery to Mice. (See also FIGS. 15A-B and 32A-B.) For determining bioactivity, 6- to 9-week-old C57BL/6 male and female mice received direct 35 μL IM injections into the TA. Mice received adeno-associated virus scAAV6.CMV.DUX4-FL at 5×10^9 DNase-resistant particles (DRP) co-injected with scAAV6.CMV.eGFP at 1×10^10 DRP, and a contralateral co-injection of scAAV6.CMV.DUX4-FL at 1×10^9 DRP or 5×10^9 DRP and scAAV6.U6.mir-675 at 5×10^10 DRP. To test toxicity of mir-675, the tibialis anterior (TA) was intramuscularly injected with increasing doses of scAAV6.U6.mir-675 at 5×10^10 DRP and 1×10^11 DRP, and injected contralateral TA with saline. To test mi405 toxicity, the TA was intramuscularly injected with 5×10^8 DRP, 5×10^9 DRP and 5×10^10 DRP of scAAV6.U6.mi405F, scAAV6.U6.mi405G or scAAV6.U6.mi405H and injected contralateral TA with saline. To test mi405 inhibition efficiency, the TA was co-injected with scAAV6.CMV.DUX4-FL at 5×10^9 DRP and scAAV6.U6.mi405F, G or H at 5×10^8 DRP, 5×10^9 DRP or 5×10^10 DRP. For this, a contralateral injection of either scAAV6.U6.mi405F, G or H or of scAAV6.CMV.DUX4-FL at 5×10^9 DRP was carried out. For mi405, all injections were compared to scAAV6.U6.mi405. Muscles were harvested at 2, 4 or 8 weeks post-injection. All animal studies were performed according to the NIH Guide for the Care and Use of Laboratory Animals.
Histology. (See also FIGS. 15A-B and 32A-B.) Dissected TA muscles were placed in O.C.T. Compound (Tissue-Tek) and frozen on liquid nitrogen-cooled isopentane. Cryosections were cut at 10 μm and then stained with H&E following standard protocols [Harper et al., Nat Med (2002) 8(3):253-61].
U6.mi405, U6.mi405F, U6.mi405G and U6.mi405H were co-injected using scAAV6 with AAV.CMV.DUX4-FL at equivalent doses (5e09 DNase Resistant Particles (DRP)) in the TA of C57BL/6 mice. This experiment was performed to investigate the efficiency of the four mi405 constructs to eliminate DUX4-induced muscle toxicity in vivo at doses equivalent to that of AAV.CMV.DUX4-FL. Previously, Wallace et al. [Wallace et al, Ann. Neurol. […]

Row | Molecule | reduction of DUX4 protein levels compared to U6.miGFP (DUX4 protein; 24 h) | reduction of DUX4 protein levels compared to U6.mi405F (DUX4 protein; 24 h) | reduction of DUX4 protein levels relative to U6.mi405 (DUX4 protein; 24 h) | efficiency in eliminating DUX4-induced muscle toxicity compared to mi405 [1] | increase of inhibition efficiency compared to U6.mi405 (western blot) (DUX4 protein; 1:4 DUX4:mi405 molar ratio, 24 h) | reduction of DUX4 protein levels (DUX4 protein; 1:4 DUX4:mi405 molar ratio, 24 h, normalized to miGFP, N=2) | Average inhibition efficiency (%) of DUX4 protein levels (DUX4 protein) | effect on DUX4 protein level (DUX4-FL WT) (DUX4 protein) | reduction of DUX4 protein levels (DUX4 protein; AAV.CMV.DUX4-FL co-transfection, 24 h, β-actin normalizer, relative to U6.milacZ)
1 | B1 | 79±6% | 33±14% | 60±8% | more efficient than mi405 |  |  |  |  | 
2 | B2 | 81±9% |  | 40±5% | no enhanced inhibition efficiency in vivo when compared to mi405 | 20% | 99±1% |  |  | 
3 | B3 | 88±2% | 52±9% | 71±5% | more efficient than mi405 |  |  |  |  | 
4 | B4 |  |  |  |  |  |  | 68 ± 5 (N = 4) % | reduce DUX4 protein level | 
5 | B5 |  |  |  |  |  |  | 43±4% | reduce DUX4 protein level | 46±11%

Source: patent publication US20240093191A1, “COMPOSITIONS AND METHODS FOR TREATING DISEASE ASSOCIATED WITH DUX4 OVEREXPRESSION” (RESEARCH INSTITUTE AT NATIONWIDE CHILDREN'S HOSPITAL, priority 2021, published 2024)
